The target in this assay is PPIA (Homo sapiens, UniProt P62937). In words: NMR.

As for PRPRPRPRPRPRPRPRPRPRPRPRPRPRPRPRPRPRPRPR [PR20 proline-arginine dipeptide repeat], the affinity, expressed as Kd, was 23 µM. In other words, the double-digit micromolar range.
